Test results from the supplement of paper PMC7125110.
± gives the standard error. This sample holds only a part of the variants without activity.

B1: glmS ribozyme (parent)
chain: AUAAAAGCGCCAGAACUACAGAAAUGUAGUUGACGAGGAGGAGGUUUAUCGAAUUUUCGGCGGAUGCCUCCAAA

Tests used:
Settings in all cases: with glucosamine-6-phosphate
[1] = variants of: B1; assay: self-cleavage kobs at 160 uM GlcN6P; higher = faster cleavage; RNA array
Method in brief: (§1)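 Barcoded glmS ribozyme variants on sequenced MiSeq chips were transcribed in situ by E. coli RNA polymerase and tracked through a hybridised Cy3 probe at 37 °C. Glucosamine-6-phosphate (40 μM to 10 mM) in HEPES/KCl/Mg(OAc)2 buffer was flowed in, and tiles were imaged over ~14 h. Signals were normalised to baseline and to non-cleaving reference variants; per-tile medians were fit to one- or two-exponential decays to give kobs. kcat and KM came from weighted Michaelis–Menten fits across concentrations.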

[2] = variants of: B1; assay: self-cleavage kobs at 640 uM GlcN6P; higher = faster cleavage; RNA array
Method in brief: as §1

[3] = variants of: B1; assay: self-cleavage kobs at 2500 uM GlcN6P; higher = faster cleavage; RNA array
Method in brief: as §1

[4] = variants of: B1; assay: self-cleavage kobs at 10000 uM GlcN6P; higher = faster cleavage; RNA array
Method in brief: as §1

Variant | self-cleavage kobs at 160 uM GlcN6P [1] [s⁻¹] | self-cleavage kobs at 640 uM GlcN6P [2] [s⁻¹] | self-cleavage kobs at 2500 uM GlcN6P [3] [s⁻¹] | self-cleavage kobs at 10000 uM GlcN6P [4] [s⁻¹]
G32C C34A C61U C67U | < 1e-05 | – | – | –
A6G G9A | < 1e-05 | < 1e-05 | < 1e-05 | < 1e-05
A15C G32C G38U | < 1e-05 | – | – | –
G51C U56C | < 1e-05 | < 1e-05 | < 1e-05 | < 1e-05
U57A G60A | < 1e-05 | – | – | –
G35U A42C | < 1e-05 | < 1e-05 | < 1e-05 | –
A12G C58U G59A | < 1e-05 | – | – | –
G40A U55A | 0.000151 ± 5.3e-05 | 0.00156 ± 0.0003 | 0.000842 ± 0.00022 | –
G7C G32U A36U G40U A42U A52G | < 1e-05 | < 1e-05 | < 1e-05 | –
C16G A52C | < 1e-05 | – | < 1e-05 | –
A14C G40U G59U C61U | < 1e-05 | – | – | –
G7A A12C | < 1e-05 | – | – | –
C10U G32C A36G A39U | < 1e-05 | < 1e-05 | < 1e-05 | –
G7U A12U C67U | < 1e-05 | < 1e-05 | – | –
C10G U45C U49A U54G C70G | < 1e-05 | < 1e-05 | – | –
G7U C34G | < 1e-05 | < 1e-05 | – | –
C11G A14C U31G A33U | < 1e-05 | < 1e-05 | < 1e-05 | –
G9U A14G U54A U56C G59A G63A U65G | < 1e-05 | < 1e-05 | – | –
A14C U47A C58G C67G U69C | 7.17e-05 ± 3.1e-05 | 9.78e-05 ± 3.1e-05 | – | –
C34U G43U C50A G51U U55G | < 1e-05 | – | – | –
U57G G63C | < 1e-05 | < 1e-05 | < 1e-05 | –
G38A G44U C58A | < 1e-05 | < 1e-05 | < 1e-05 | –
A39C G44U U46C G60U G63C C68A C71A | < 1e-05 | < 1e-05 | < 1e-05 | –
G32C A39C U45A U56G | < 1e-05 | – | – | –
C8U U56A | < 1e-05 | < 1e-05 | < 1e-05 | –
A6U U47A A53U | < 1e-05 | – | – | –
G38U G43U U65C | < 1e-05 | – | – | –
C11A C16A | < 1e-05 | – | – | 2.86e-05 ± 1e-05
G35C G60A C68A | < 1e-05 | < 1e-05 | – | –
